Our source for the EC50 values is the supplement of paper PMC6379048.

Assay in all cases: EC50 of free RNA motif oligo competing protein binding to immobilised probe
One data set deals with T1, CPSF2 (UniProt Q9P2I0).
T1 sequence: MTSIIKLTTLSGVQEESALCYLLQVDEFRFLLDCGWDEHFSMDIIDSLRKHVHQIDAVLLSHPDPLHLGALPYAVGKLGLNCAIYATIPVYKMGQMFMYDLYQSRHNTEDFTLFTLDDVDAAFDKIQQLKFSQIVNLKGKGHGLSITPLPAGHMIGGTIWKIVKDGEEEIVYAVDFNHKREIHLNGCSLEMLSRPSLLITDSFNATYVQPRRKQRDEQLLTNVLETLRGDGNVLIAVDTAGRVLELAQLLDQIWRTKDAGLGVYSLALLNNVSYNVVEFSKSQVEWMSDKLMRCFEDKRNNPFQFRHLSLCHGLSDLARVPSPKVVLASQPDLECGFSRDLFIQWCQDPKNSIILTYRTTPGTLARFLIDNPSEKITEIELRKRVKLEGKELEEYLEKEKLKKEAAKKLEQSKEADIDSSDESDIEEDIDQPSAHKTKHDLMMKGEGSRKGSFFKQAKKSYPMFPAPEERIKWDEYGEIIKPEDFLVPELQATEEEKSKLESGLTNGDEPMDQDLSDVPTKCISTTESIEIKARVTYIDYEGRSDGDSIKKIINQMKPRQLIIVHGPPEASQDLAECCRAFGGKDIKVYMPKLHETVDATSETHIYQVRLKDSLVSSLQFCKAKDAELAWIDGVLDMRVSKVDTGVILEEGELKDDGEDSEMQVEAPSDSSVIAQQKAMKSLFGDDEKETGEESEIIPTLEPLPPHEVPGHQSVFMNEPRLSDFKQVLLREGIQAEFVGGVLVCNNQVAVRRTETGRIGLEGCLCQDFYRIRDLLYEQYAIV
The gist of the method: (§1)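 Kd was calculated as EC50, taken from a four-parameter log-logistic fit, multiplied by a protein-dependent depletion factor. The assay used HEK293-FT lysate (2.5 mg protein/well) pre-incubated for 1 h at 4°C with free RNA oligos (0 nM to 30 μM), then incubated for 30 min at 4°C with the matching oligos bound through a 5′-amino-C6 linker to NHS-Sepharose beads. Bound proteins were measured by label-free LC-MS/MS and normalised to the control.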

Another data set concerns the target T2, CSTF2 (UniProt P33240).
T2 sequence: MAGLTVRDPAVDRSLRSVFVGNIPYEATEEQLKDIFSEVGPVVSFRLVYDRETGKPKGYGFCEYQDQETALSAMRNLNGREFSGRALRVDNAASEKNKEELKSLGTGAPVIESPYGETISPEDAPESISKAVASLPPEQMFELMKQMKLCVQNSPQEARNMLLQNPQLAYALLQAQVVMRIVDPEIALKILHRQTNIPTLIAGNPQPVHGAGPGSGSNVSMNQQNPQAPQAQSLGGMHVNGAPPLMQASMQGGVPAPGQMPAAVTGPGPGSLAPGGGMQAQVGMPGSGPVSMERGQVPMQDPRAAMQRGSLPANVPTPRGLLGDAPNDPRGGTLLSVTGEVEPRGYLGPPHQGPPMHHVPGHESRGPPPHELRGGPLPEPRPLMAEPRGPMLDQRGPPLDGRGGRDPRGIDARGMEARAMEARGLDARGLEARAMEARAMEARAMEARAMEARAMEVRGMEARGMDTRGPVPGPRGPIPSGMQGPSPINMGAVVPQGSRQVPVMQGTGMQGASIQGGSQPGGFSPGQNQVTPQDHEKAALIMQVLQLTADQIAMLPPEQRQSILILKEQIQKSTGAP
The gist of the method: as §1

A further data set concerns the target T3, FIP1L1 (UniProt Q6UN15).
T3 sequence: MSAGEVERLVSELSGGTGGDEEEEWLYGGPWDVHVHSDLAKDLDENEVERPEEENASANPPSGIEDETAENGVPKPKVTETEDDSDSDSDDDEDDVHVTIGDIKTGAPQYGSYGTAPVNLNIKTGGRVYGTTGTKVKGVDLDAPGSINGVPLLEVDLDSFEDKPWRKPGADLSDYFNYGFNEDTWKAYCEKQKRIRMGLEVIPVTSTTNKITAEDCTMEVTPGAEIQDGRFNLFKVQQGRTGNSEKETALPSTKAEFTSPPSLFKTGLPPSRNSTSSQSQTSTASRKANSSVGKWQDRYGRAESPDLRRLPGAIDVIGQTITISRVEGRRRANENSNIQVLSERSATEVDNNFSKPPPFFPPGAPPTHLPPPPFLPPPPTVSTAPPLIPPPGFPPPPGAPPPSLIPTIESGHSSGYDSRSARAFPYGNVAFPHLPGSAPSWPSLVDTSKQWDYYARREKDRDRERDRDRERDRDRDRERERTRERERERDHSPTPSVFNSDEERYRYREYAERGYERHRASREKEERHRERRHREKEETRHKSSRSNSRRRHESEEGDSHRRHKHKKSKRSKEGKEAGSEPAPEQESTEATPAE
The procedure, abridged: as §1

The next data set concerns the target PABPC4 (UniProt Q13310). The gist of the method: as §1
Another data set has as its target T4, RBM17 (UniProt Q96I25).
T4 sequence: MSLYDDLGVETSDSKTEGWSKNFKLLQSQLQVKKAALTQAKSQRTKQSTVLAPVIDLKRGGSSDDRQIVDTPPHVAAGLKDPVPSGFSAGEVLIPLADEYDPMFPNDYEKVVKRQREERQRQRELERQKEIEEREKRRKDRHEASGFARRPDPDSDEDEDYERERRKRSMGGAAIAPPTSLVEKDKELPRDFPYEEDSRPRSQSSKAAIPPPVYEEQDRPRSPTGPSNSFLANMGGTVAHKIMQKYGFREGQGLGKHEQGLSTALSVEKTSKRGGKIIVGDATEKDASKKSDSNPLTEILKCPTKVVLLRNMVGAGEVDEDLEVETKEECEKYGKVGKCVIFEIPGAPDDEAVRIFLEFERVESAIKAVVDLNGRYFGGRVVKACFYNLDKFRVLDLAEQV
The gist of the method:
as §1

Chain of PABPC4 (Q13310 whole entry): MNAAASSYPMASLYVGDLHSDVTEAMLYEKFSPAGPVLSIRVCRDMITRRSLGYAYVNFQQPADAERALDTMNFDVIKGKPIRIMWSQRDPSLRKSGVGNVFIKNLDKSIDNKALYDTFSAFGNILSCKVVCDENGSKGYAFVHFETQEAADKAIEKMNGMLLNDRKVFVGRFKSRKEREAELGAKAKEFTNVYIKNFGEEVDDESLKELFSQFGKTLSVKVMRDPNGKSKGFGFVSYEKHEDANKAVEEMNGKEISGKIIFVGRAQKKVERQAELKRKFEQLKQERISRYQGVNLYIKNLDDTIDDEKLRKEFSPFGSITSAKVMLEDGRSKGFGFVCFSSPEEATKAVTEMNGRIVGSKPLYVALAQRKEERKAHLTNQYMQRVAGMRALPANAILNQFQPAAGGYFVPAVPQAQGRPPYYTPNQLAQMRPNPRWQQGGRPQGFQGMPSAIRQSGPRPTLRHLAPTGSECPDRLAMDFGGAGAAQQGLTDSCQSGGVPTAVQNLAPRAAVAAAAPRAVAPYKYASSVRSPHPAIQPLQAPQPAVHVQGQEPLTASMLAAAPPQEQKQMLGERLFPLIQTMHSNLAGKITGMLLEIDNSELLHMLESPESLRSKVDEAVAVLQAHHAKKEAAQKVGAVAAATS

Consider AAUAAA, for which the EC50 with CPSF2 came out at 68.3 nM; with CSTF2, 83.9 nM; with FIP1L1 it was 64.8 nM; with PABPC4, 4280 nM; with RBM17 it was 2490 nM.
Turning to UAUUUAU, the EC50 with CPSF2 worked out at 1510 nM; with CSTF2 it was 463 nM; in the data set with FIP1L1, 1390 nM; with PABPC4, 13600 nM; with RBM17, 93.1 nM.

One may read the EC50 as the concentration needed to bring the measured effect to its halfway point. Low values mean greater potency, high ones weaker potency.
